According to patent EP4644426A1 (Gan & Lee Pharmaceuticals Co., Ltd., dated 2025):
Like-named read-outs stand apart in the source and are kept apart here.

Key:
[1] = molecular target: human FXIa factor (human) (UniProt P03951); test: cell-based or functional assay
[2] = molecular target: human FXIa factor (human) (UniProt P03951); test: cell-based or functional assay; remark: listed apart in the source
[3] = molecular target: human FXIa factor (human) (UniProt P03951); test: Biacore 8K (SPR), human FXIa in 2-fold dilution series
[4] = molecular target: human FXIa factor (human) (UniProt P03951); test: cell-based or functional assay; remark: listed apart in the source
human FXIa factor [5] = molecular target: T1, human FXIa factor (human, UniProt P03951 19-625); test: cell-based or functional assay
human FXIa factor [6] = molecular target: T1, human FXIa factor; test: cell-based or functional assay; remark: listed apart in the source
human FXIa factor [7] = molecular target: T1, human FXIa factor; test: Biacore 8K (SPR), human FXIa in 2-fold dilution series
human FXIa factor [8] = molecular target: T1, human FXIa factor; test: cell-based or functional assay; remark: listed apart in the source

MAA868 (antibody) showed an FXIa Kit Activity Assay (nM), IC50 (First Batch) [1] of 11.2 nM, an FXIa Kit Activity Assay (nM), IC50 (Second Batch) [1] of 11.7 nM and an FXIa Kit Activity Assay (nM), IC50 (Third Batch) [1] of 13.3 nM. The FXIa kit Activity Assay (nM), IC50 [1] was 28.9 nM, the IC50(nM) from S2366 Assay [1] was 67.3 nM and the IC50(nM) from S2366 assay (First Batch) [1] was 118 nM. It also gave an IC50(nM) from S2366 assay (Fourth Batch) [1] of 64.7 nM, an IC50(nM) from S2366 assay (Second Batch) [1] of 83.6 nM and an IC50(nM) from S2366 assay (Third Batch) [1] of 106 nM. For the same molecule, the OD405nm, S2366 activity assay, antibody at 20µg/mL [1] was 0.449 OD405nm, the FXIa kit Activity Assay (nM), IC50 [2] was 12.7 nM and the Kd [3] was 0.00717 nM. The koff [3] was 8.48e-06 s⁻¹, the kon [3] was 1.18e+06 M⁻¹ s⁻¹ and the IC50(nM) from S2366 Assay [4] was 44.9 nM.

B1: 17E3C10-sy (antibody, V domains shown)
VH: QVKLQESGPELRKPGETVYISCKASGYTFTNYGVNWVKQAPGKGLKWMGWINTYTGEPIYADDFKGRFAFSLETSANTAYLQISNLTNEDTATYFCARLYLYGNTYDYYAMDYWGQGTSVTVSS
VL: DIVLTQTPSSMYASLGERVTITCKASQDISTYLSWFQQKPGKSPKTLIYRANRLIDGVPSRFSGSGSGQDFSLTISSLEYEDMGVYYCLQYDDLNTFGGGTKLEIK
B1 was tested, and the “OD405nm, S2366 activity assay, antibody at 20µg/mL” value (“OD405nm, S2366 activity assay” below) (human FXIa factor [5]) was 0.414 OD405nm.

B2: 29E10C4-sy (antibody, V domains shown)
VH: QVKLEESGAELVRPGTSVKVSCKASGYAFTDYFIEWIKQRPGQGLEWIGVINPGNDVTNYNEKFKGKATLTVDKSSTTAYMQLSSLTSDDSAVYFCTRSAGNYENSMDFWGQGTSVTVSS
VL: DIVLTQSPKFLLVSAGDRVTITCKASQSVSNDVGWYQQKPGQSPKLLIYYTSNRYTGVPDRFTGSGYGTDFTFTISSVQAEDLAVYFCQQDYHFPLTFGAGTKLELK
With B2 the “FXIa kit Activity Assay (nM), IC50” value (human FXIa factor [6]) was 0.248 nM and the “OD405nm, S2366 activity assay” value (human FXIa factor [5]) was 0.198 OD405nm.

B3: humanized antibody 29E10C4-1 (antibody, human IgG1, kappa, V domains shown)
VH: QVQLVQSGAEVKKPGSSVKVSCKASGGTFSDYFIEWVRQAPGQGLEWMGVINPGNDVTNYNEKFKGRVTITADKSTSTAYMELSSLRSEDTAVYYCARSAGNYENSMDFWGQGTTVTVSS
VL: EIVLTQSPATLSLSPGERATLSCKASQSVSNDVGWYQQKPGQAPRLLIYYTSNRYTGIPARFSGSGSGTDFTLTISSLEPEDFAVYYCQQDYHFPLTFGGGTKVEIKR
notes: 29E10C4-1 is the only humanized form of that clone
In the case of B3, the “FXIa kit Activity Assay (nM), IC50” value (human FXIa factor [6]) is reported as 0.545 nM, the Kd (human FXIa factor [7]) is reported as 0.00145 nM and the koff (human FXIa factor [7]) is reported as 1.96e-05 s⁻¹. The kon (human FXIa factor [7]) was 1.35e+07 M⁻¹ s⁻¹ and the “IC50 (nM) from S2366 Assay” value (human FXIa factor [8]) was 24.5 nM.

B4: 17E10-sy (antibody, V domains shown)
VH: EVQLEESGPGLVKPSQSLSLTCSVTGYSITSGFYWNWIRQFPGNKLEWMGYISFDGRHNYNPSLKNRFSITRDTSKNQFFLKLTSVTAEDTATYYCARDLITTVYYYPMDYWGQGTSVTVSS
VL: DIVMTQSHKFMSTSVGDRVSITCKASQDVGTAVDWYQQKTGQSPKLLIYWASTRHTGVPDRFTGSGSGTDFTLTISNVQSEDLADYFCQQYSNYPLTFGAGTKLELK
With B4 the “OD405nm, S2366 activity assay” value (human FXIa factor [5]) was 0.189 OD405nm.

B5: 11E8-sy (antibody, V domains shown)
VH: EVKLQESGPELVKTGASVKISCKASGYSFTGYFMNWVKQSHGKSLEWIGFINCYNGATSYNQKFKGKATFTVDASSSSAYMQFNSLTSEDSAVYYCARTISTGDSFDYWGQGSTLTVSS
VL: DIVMTQSTSYLSVSLGGRVTITCKASDHINNWLAWYQQKPGDAPSLLISGASRLETGVPSRFSGSGSGKDYTLSITSLQTEDVATYYCQQYWTTPFTFGSGTKLEIK
For B5, the “OD405nm, S2366 activity assay” value (human FXIa factor [5]) was 0.294 OD405nm.
